This is an account of results in PMC4395007.

In this experiment the target is BG505 SOSIP.664 gp140 trimer (HIV-1) (UniProt Q2N0S6). As to the kind of experiment: negative-stain electron microscopy.

Regarding CAP256-VRC26.09 Fab, the stoichiometry N (Fab per trimer) was determined as 1.
